Measured values taken from PMC10953399, “Escherichia coli DNA repair helicase Lhr is also a uracil‐DNA glycosylase”.

Tests used:
[1] = biological target: Lhr (Escherichia coli MG1655, UniProt P30015 1-1538); assay: EMSA; 5 mM EDTA; 12.5-200 nM protein, 12.5 nM DNA; 20 mM Tris pH 7.5, 10% glycerol, 100 ug/mL BSA, 25 mM DTT, 5 mM EDTA, 12.5 nM Cy5-DNA; 37 C 20 min then ice 10 min; 5% acrylamide TBE gel; details: protein: recombinant; tags: His6; label: 5' Cy5; single strand
[2] = biological target: T1, Lhr-CTD (Escherichia coli MG1655, UniProt P30015 876-1538); assay: EMSA; 5 mM EDTA; 12.5-200 nM protein, 12.5 nM DNA; no stable complex; 20 mM Tris pH 7.5, 10% glycerol, 100 ug/mL BSA, 25 mM DTT, 5 mM EDTA, 12.5 nM Cy5-DNA; 37 C 20 min then ice 10 min; 5% acrylamide TBE gel; details: protein: recombinant; tags: pNH-TrxT vector (GU269914.1); label: 5' Cy5; single strand
T1 sequence: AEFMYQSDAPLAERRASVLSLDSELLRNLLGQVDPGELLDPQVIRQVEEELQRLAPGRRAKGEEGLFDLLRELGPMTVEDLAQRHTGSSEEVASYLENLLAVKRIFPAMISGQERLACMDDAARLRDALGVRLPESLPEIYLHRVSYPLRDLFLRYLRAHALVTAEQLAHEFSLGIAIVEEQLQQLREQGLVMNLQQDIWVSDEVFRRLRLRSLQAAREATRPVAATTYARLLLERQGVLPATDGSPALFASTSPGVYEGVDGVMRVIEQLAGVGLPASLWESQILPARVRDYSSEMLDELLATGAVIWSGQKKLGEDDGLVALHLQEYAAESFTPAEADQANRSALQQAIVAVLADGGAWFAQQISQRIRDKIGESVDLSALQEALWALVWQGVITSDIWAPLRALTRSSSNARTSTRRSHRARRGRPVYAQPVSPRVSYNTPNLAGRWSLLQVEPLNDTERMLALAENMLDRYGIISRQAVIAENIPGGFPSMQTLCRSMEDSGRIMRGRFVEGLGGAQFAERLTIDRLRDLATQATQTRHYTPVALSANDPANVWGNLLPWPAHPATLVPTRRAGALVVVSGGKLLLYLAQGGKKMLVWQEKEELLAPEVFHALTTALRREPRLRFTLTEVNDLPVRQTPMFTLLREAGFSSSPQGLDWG

B1: Cy5-ssDNA (EMSA) (ssDNA)
DNA: TCGGATCCTCTAGACAGCTCCATGATCACTGGCACTGGTAGAATTCGGC
- binding result [1]: binds
- binding result [2]: no binding
